According to paper PMC7041945, “Misfolded proteins bind and activate death receptor 5 to trigger apoptosis during unresolved endoplasmic reticulum stress” (eLife, 2020):

Key:
[1] = tested on: XBP1 mRNA in HCT116 cells; test: RT-PCR for Xbp1 mRNA splicing; assay type: cell-based, Homo sapiens; details: HCT116, 24 hr
Procedure: Cells were grown in 6-well plates and harvested with 0.5 ml of TRIzol reagent (Life Technologies) per manufacturer's protocol to extract RNA. […] The reverse transcription product was diluted to 200 μl with 10 mM Tris-HCl pH 8.2 and used at 1:100 dilution for subsequent RT-PCR reactions. 2 μl of cDNA was added to 0.2 μM of forward and reverse primers ([…]; Hs_XBP1_Rev: [NT]), 0.2 mM of each dNTP, 0.5 units of Taq DNA polymerase (Thermo Scientific). The reaction was set at an annealing temperature of 60.5°C with an extension time of 30 s for 26 cycles.

[2] = tested on: caspase 8 in HCT116 fractions; test: Caspase 8 activity of subcellular (iodixanol gradient) fractions; assay type: cell-based, Homo sapiens; details: cells expressing MPZ-GFP; first and second ERGIC-associated fractions
Procedure: This subcellular fractionation protocol was adapted from [Xu et al. (2015)].
Cells transfected with MPZ-GFP were harvested from a 15 cm dish as described in the Size Exclusion Chromatography section above. The cell pellet was resuspended in 400 μl of homogenization buffer (10 mM triethanolamine-acetic acid, pH 7.4, 0.25 M sucrose, 1 mM sodium EDTA, protease inhibitor cocktail (Roche)) and lysed via mechanical shearing through a 25-gauge needle on a 1 ml syringe with 13 passes. (Note on protease inhibitor: 4x protease inhibitor was used to lyse samples used for Western blotting to minimize degradation of proteins, while 1x protease inhibitor was used in sample lysis for caspase glo 8 assay so that excess inhibitor would not interfere with cleavage of luminescent substrate.) Homogenized sample was then centrifuged at 2000xg for 15 min at 4°C to remove unlysed cells and the nuclear fraction. […]
Fractions from samples lysed with 4x protease inhibitor were subjected to TCA precipitation to concentrate protein content for immunoblotting. Fractions from samples lysed with 1x protease inhibitor were used for the caspase glo 8 assay (10 μl of each fraction + 10 μl of the caspase glo 8 reagent (Promega #PRG8200) incubated for 45 min at RT prior to measuring luminescence).

B1: MPZ-GFP: myelin protein zero with a C-terminal monomeric EGFP, expressed from plasmid (protein)
chain: IVVYTDREVHGAVGSRVTLHCSFWSSEWVSDDISFTWRYQPEGGRDAISIFHYAKGQPYIDEVGTFKERIQWVGDPRWKDGSIVIHNLDYSDNGTFTCDVKNPPDIVGKTSQVTLYVFEKVPTRYGVVLGAVIGGVLGVVLLLLLLFYVVRYCWLRRQAALQRRLSAMEKGKLHKPGKDASKRGRQTPVLYAMLDHSRSTKAVSEKKAKGLGESRKDKK
modifications: left off: monomeric EGFP, C-terminal, kept
notes: myelin protein zero with a C-terminal monomeric EGFP, expressed from plasmid
XBP1 mRNA splicing [1]: initiated a few hours post-transfection with MPZ-GFP and later attenuated
caspase 8 activity of ERGIC-associated fractions [2]: harbored the majority of the caspase 8 activity in the cell lysate
